Consider 132 substances from the supplement of paper PMC12042874.

± gives the uncertainty stated by the source.

The nature of the data set: amyloid nucleation score (Sup35N fusion, yeast selection) (log enrichment); library NNK3; higher = more nucleation; inactive = no reads after selection. Put shortly: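 Peptides of 20 random codons fused to Sup35N were expressed in psi-negative yeast, induced 24 hours with 100 μM copper sulfate, then grown 7 days at 30°C on medium lacking adenine and uracil. Input and output plasmid inserts were Illumina-sequenced. Nucleation score is the DiMSum log enrichment of output over input reads, centred on the mode score of non-aggregating sequences, excluding sequences with under 100 input reads. Random libraries had three technical output replicates.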
Take TVDNHGSA: the amyloid nucleation score entry was “inactive”. The value for TVEKTWKTVYIYKDSVTLRN was 1.33 ± 0.12; that for TVFCLVKFRLEFYVTMPEYC was “inactive”; that for TVFDWLMHQMNC was “inactive”. The value for TVHAYLFCGTAVMTVRSSVV was “inactive”; that for TVHNKMPHRLWNCTTLE was “inactive”. For the substance TVHSIDRVVIIHRLMND, the amyloid nucleation score stood at 0.235 ± 0.35. For TVSCLLKKVSRIVTVCVEWD the value was “inactive”. The value for TVSYRTTIWWRSINFNRRAL was “inactive”; that for TVTCRVQRHLDLN was “inactive”; that for TVVMIFLISYNFF was 1.7 ± 0.1. For TVVRNGIKTVYGLVDCVDS, the amyloid nucleation score entry was “inactive”. Turning to TVWKGIREYSRS, the amyloid nucleation score result was “inactive”.

Take TWAWPGRYYQWLQLQLGLNK: the amyloid nucleation score entry was “inactive”.

On to TWFYQ, for which the amyloid nucleation score result was “inactive”. For TWGCYLLISNI the value was “inactive”. For TWGIG the value was “inactive”; for TWISITWTWPWKKWVLNLRY, “inactive”. Take TWLRSYMLYYVVWFF: the amyloid nucleation score result is “inactive”. TWNGMWFVLSSL: the amyloid nucleation score entry was “inactive”. For TWNVPWE the value was “inactive”; for TYAIGLHMLGSMGKIPDWEQ, 1.25 ± 0.14.

With TYAIYVDSGIFLEVHGNLYM, the amyloid nucleation score came to 2.64 ± 0.08. For TYCYTVVTASMDAFEG, the amyloid nucleation score entry was “inactive”.

Regarding TYFDFVLYV, the amyloid nucleation score entry was “inactive”. The value for TYFILSDCQASNIFSPMSDE was 0.478 ± 0.14. For the substance TYFMRPSNYHVLSLGAG, the amyloid nucleation score result is “inactive”. Turning to TYGGMSQSNLLRWCCFAWMY, the amyloid nucleation score entry is “inactive”. The value for TYGQLCIKVTGLGHFYRPMG was 0.922 ± 0.18; that for TYIPFIIYLIGCVLVYVYVL was “inactive”; that for TYIRGQRCDIQMETWMTLCS was “inactive”. For TYLALGLSSSMLRESLKWEV the value was “inactive”. For TYLCGFHLYCC the value was “inactive”; for TYLIYGGG, “inactive”.

In the case of TYQSVDTVLSSVT, the amyloid nucleation score entry was “inactive”.

On to TYSGRIKLFLCWMLILSNGT, for which the amyloid nucleation score entry was “inactive”. For TYSGRSKSILTGSID the value was “inactive”. Turning to TYSRFEISCMCWASYTIK, the amyloid nucleation score was 0.775 ± 0.22. The value for TYTYCTLNSLTDSRSETILV was “inactive”; that for TYVARIVN was “inactive”; that for TYVGVYALIF was -1.12 ± 1.5. For TYYTGQLNVTEVVFLYISGS the value was 1.96 ± 0.069; for VAALFKGKAVSCGGFSFFN, -0.076 ± 0.54. The value for VALWWTVMYRFFMALTFIMQ was “inactive”; that for VAPGDPNMIGHGLHVFTTTL was -0.498 ± 0.83; that for VAPWKKPLPMKVTSAQFPNR was “inactive”. Substance VASCMTGWLILDETMSSFKL showed an amyloid nucleation score of -0.746 ± 0.98. Take VASVIL: the amyloid nucleation score entry was “inactive”. For VCCSVSVAWKSWAHT the value was 1.28 ± 0.13; for VCFDSVAMDNHDYPCVTRYM, “inactive”. Take VCFGWSNSFSAWT: the amyloid nucleation score entry was “inactive”. For VCGLLL the value was “inactive”; for VCHKCCDRIQSLVGVRGHQE, “inactive”. For VCKLVTYSYLLVREPRSADS the value was “inactive”; for VCKMSNMFNSFCYYASQFCY, “inactive”. Substance VCKVCFVERSCVVVVNV came in with an amyloid nucleation score of 1.8 ± 0.067. The value for VCQESPSEIGES was “inactive”; that for VCRDSVILLDLLGAMCVVYG was “inactive”; that for VCRFPRFFWTCYSDVLHCFS was “inactive”. The value for VCTVQCFEKIEL was “inactive”; that for VDEYVLWVSYYPWWYRVNTV was “inactive”. For VDFLCNPWVERINGYVWEVV the value was “inactive”; for VDINRFMEPLSCVRCCDDSC, “inactive”. As to VDKWDCLSYSNIVGLMRLDV, the amyloid nucleation score entry is “inactive”. The value for VDLGRWFSSGFVWLGYKDIF was “inactive”; that for VDNHAFKAFKHLGSSLMADR was “inactive”; that for VDNHPDFFLNLESVLINVDH was “inactive”. The value for VDSILAMGRGAYVID was “inactive”.

Take VDSWSRGQVSQLGRSQWADI: the amyloid nucleation score is 0.68 ± 0.31. The value for VDVERIQFRSICLCLSTFCV was 1.53 ± 0.081; that for VDVLFC was “inactive”. The value for VDVQVINLAFETFECCAFIK was 0.82 ± 0.16. For VDVYLDYDIAMQPGVYALWR the value was “inactive”. For VEDKCVWFV, the amyloid nucleation score entry was “inactive”. The value for VEMATKLQVKVIERALNEGD was “inactive”; that for VENRYVIINSRVMGD was “inactive”. For VEPRWNRLVGNHVCSFDGNV the value was “inactive”; for VEPYRVLYRNGR, “inactive”.

As for VESRRRLRVEVGFSRVDT, the amyloid nucleation score came out at 0.077 ± 0.79.

With VFEDNDLCELINDVILEHHR, the amyloid nucleation score result is “inactive”. The value for VFFTHATVLSKSYFNLERLV was 0.426 ± 0.33; that for VFHWSKLSFVEYHGKCGRSS was “inactive”.

VFIKLPVRSS came in with an amyloid nucleation score of -0.192 ± 0.96.

As to VFIPVASVIKWGSFKP, the amyloid nucleation score was determined as 0.65 ± 0.21. For VFKFALFTGTLLWLDHCVVS the value was 1.51 ± 0.14; for VFLSAVAGDYIV, “inactive”; for VFLSIMSSFEWALYLL, “inactive”.

VFRAGILESWHRWEGLGVVL: the amyloid nucleation score result is “inactive”. For VFRAGWPVWALDYELYSVRA, the amyloid nucleation score result is “inactive”. The value for VFSNSGAETVLGLSKGWSDV was -0.542 ± 0.96. The value for VFTNGRSYISRMISYYKYCR was “inactive”; that for VFTYCYVFHQVVSLRQARLR was “inactive”. For VFVMPDDNVC the value was “inactive”; for VGAKRFPYVYWAYGSYVFAD, “inactive”; for VGCLGGRSTSSRWSSLRLLV, “inactive”. Consider VGFCNGIGVVMGRPAKCSWR, for which the amyloid nucleation score was -0.06 ± 1.1. Regarding VGFKSCS, the amyloid nucleation score result was “inactive”. Regarding VGFPESPFDSLCAMCALQWV, the amyloid nucleation score entry was “inactive”. As to VGIIVFLIAFHYYKRSMYWD, the amyloid nucleation score result was “inactive”. For the substance VGLIRCLVDVKLI, the amyloid nucleation score entry is “inactive”.

As to VGLNQSLNRWPTSSSQHMGG, the amyloid nucleation score result was “inactive”. VGNFLTLSVWDNSGRRIGEE registered an amyloid nucleation score of 0.705 ± 0.19. For VGNFTWICKI the value was 2.48 ± 0.056. In the case of VGNNWS, the amyloid nucleation score result was “inactive”. The value for VGQTCFTIMMVV was “inactive”.

In the case of VGRHDNGVSDFAMTSSWVFF, the amyloid nucleation score result is “inactive”.

With VGRNECARRMVLRKWWLYLV, the amyloid nucleation score result is “inactive”. For VGTDDVIICILSVKFPLIRP the value was “inactive”. The value for VGVSISLSRARWGQIAMEET was 1.05 ± 0.2.

On to VHGKWIDRRYNVISRPLGGG, for which the amyloid nucleation score entry was “inactive”. For the substance VHLSRWYVN, the amyloid nucleation score entry was “inactive”.

As to VHVYFRLADL, the amyloid nucleation score stood at 1.3 ± 0.14. For VHYGNGLRWLGSLVYMGGCI the value was “inactive”; for VICFAARALVYC, “inactive”; for VICIKEEEG, “inactive”.

Regarding VIDEYQSVICGYLIRGWHAS, the amyloid nucleation score is 1.79 ± 0.088. For VIDVFSRDLSMLIFSFGHMK the value was 1.12 ± 0.089. For VIGVCFSKFWWNTHDTRSDS the value was 0.665 ± 0.23; for VIKTLVSWTYISCRLN, “inactive”. As to VIKTTNNQ, the amyloid nucleation score worked out at 1.09 ± 0.11. For VILATAYLASNLYPVCSLIS, the amyloid nucleation score entry was “inactive”. The value for VILVFIFRYLHTPSGSSGAR was “inactive”; that for VIMYHMKFDNEIWVMHLLRN was “inactive”; that for VIRNYTIEIMWVWDQKADVQ was “inactive”. For VITGLIMMLNCIGFVFRGLA, the amyloid nucleation score entry was “inactive”. With VITIAIELLGVLFVCIGTIV, the amyloid nucleation score result is “inactive”. The value for VIVKKLY was “inactive”; that for VKDGTLCWCRAPFRCCRMPI was -0.426 ± 1.1.

Consider VKNIGS, for which the amyloid nucleation score result is “inactive”. On to VKNVIRGIKAQKVGGDESLC, for which the amyloid nucleation score result was “inactive”. The value for VKPLSRY was “inactive”; that for VKPSLF was -0.567 ± 1.
